According to patent publication US20250092424A1 (University of Washington, published 2025):

Biological target: T1, design #8 (v-SNARE-like protein, v-SP; MPNN-redesigned VAMP2), SEQ ID NO: 8
T1 chain: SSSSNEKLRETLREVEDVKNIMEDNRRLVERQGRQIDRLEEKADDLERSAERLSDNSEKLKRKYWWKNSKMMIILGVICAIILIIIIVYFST
Experiment: cell-based or functional assay

- cell-cell fusion assay (reporter luciferase), fold over parental SNARE complex: 10 fold
B1: design #94 (single-chain t-SNARE-like protein, sc-t-SP), SEQ ID NO: 94 (designed binder)
chain: SEREKEIDEGLDRVSEIVKELKKMAEEMRRMIEEQGRRIERIEEKAEEAKEKIEEANERAEKLLKDPGGSGGSEELKKLEKEGEKLKELVEELDREIKELKEGMERLREMFEEAAKLSEEALEIMRRTRKLSEEELEEAKQKAKEQEKEKALKEKGGSGGSGGSEKVKRELAQIEERHQQILELEEKIKELLEMFKELSEKIEEQGQKIDRIEDKVSKAKEHVEKGVEDTKKAVKYQSKARRKKIMIIICCVILGIVIASTVGGIFA
